From PMC6582153

Tests used:
Assay in all cases: MST; 2-hep HMM with C-terminal eGFP (fluorescence followed) titrated with increasing concentrations of unlabeled proximal S2; 23 °C; 10 mM imidazole pH 7.5, 100 mM KCl, 1 mM EDTA, 2 mM MgCl2, 1 mM DTT, 500 mM ADP, 0.05% Tween; MST power 60; isotherms fitted with the Hill equation
[1] = target: D382Y recombinant human β-cardiac myosin 2-hep HMM (UniProt P08590)
[2] = target: R719W recombinant human β-cardiac myosin 2-hep HMM (UniProt P08590)
[3] = target: WT recombinant human β-cardiac myosin 2-hep HMM (UniProt P08590)

With “proximal S2 (amino acids 839–968) of human β-cardiac myosin (from UniProt P12883 839-968) (domain or fragment)” as the substance, how does the Kd [1] read?
Its Kd is 45 µM.

What about the Kd [2] of the same substance?
Its Kd is 58 µM.

And the Kd [3]?
Its Kd is 37 µM.
